Assay: label from the status in PepcDB records

Row | Sequence | protein production
1 | MCYAASKLWNVCNYERHHYKELGLEKYPDWYYQKKAHKGDLWYRQLPSQTAQETCKQLDKAWKSFYVLKKTGGIKEPNPPRFKQDNIPVTYMQMGIRHEKGSDQLRLSLPRDLKSYMEETYGIHEKFLYLENKIFRNMDHIKQLRIYPPENGTCELIVIYEIEEPEQLSQNGHYLSVDLGLHNLMTCYDSGNGRTFILGRKYLSLERYFHKEIARVQSVWYAQQSERGIKYPKSSKHIQRLYRKKQNAVKDYLHKTTRWIAEYCRKEDIRCVVVGDIRNIRKEKDMGHKTNQKFHGLPYNRLYIMLEYKLKLYGIQLIKQEESYTSQCSPLSPEVSKRHAEASNRKERGMYITDGVRFNADAVGAFNILRKHLSVSGKQKEMSVTGLKTPEIIKVAA | failed
2 | MDAAKRGFPPVVDAKTCVLILGSLPGDASLAAGQYYGHPRNAFWRLMEGVIDAPLVVRAYEDRLVTLLAHGVGLWDVIETARRPGSLDAAIREPAANDLMALIDTLPALRLVAFNGGTAGRLGGRLIGTRVSTLALPSSSPAYAARTFAQKAAAWAALRDGLADTYSRPHPEPVEGPGRPPRRGRPAPRQP | failed
3 | MDAAVIVPAYNEAESLARCLAPFESQPVELVVVVGGDDGTEQVARDTPFVDTVVRCDEGGAGIARNRGAAAATAPILLFTDADTVVPEDWVRLHLRHYADDEVIGVGGPARPLEDSLKHRVLFKLLSDYWYRVSWPLGFVQQPGFNCSFRADAFKAAGGFNEDIPFMEDTELSLRMKDYGRIVYDADSCVATSARREADEGYVSLFAKYVRGYANHYILRREFDADYFLEHHHHHH | failed
4 | MDAEEKDGVLYFEGQVLTGAKVNSVIDHTLLDFGCEAEETIVSCGEDTSNPHGTTEGPLRANAPIILDIFPRSKKKRYFADMTRTVLRGEASEKLKEMYETVLVAQQKALEMVKPGIHSSEIHRAVCDLFEARGYHTYRSGSKAGFTHSTGHGVGLDIHELPSVGESGVLLETGNVITIEPGLYYPGIGGIRLEDMVLVTKTGYENFTGLEKKFVLKSFYNLEHHHHHH | not failed
5 | MDAEGNLFMSWRDGGTFGIARINEQQNIVTPLIEADAANRILYANGLTVDRATGMLTAAHESVKEVTFTFDPREAWYPRQRNIKYSQSDLNSIVDADRYKNFVTFCPYDGYLYTRYRDGKIAKIDPNTFEGHIIHQGPSGSQYGQAINPAKPWLLYITLHSNAPTAYRQGISVLDLRDPDGTGGFKRLNAPGGSAFRDGPIEDALFNYPKDIKFDNDGNMFVADYGNHCIRMISADNIVTTVAGQPGVAGYKDGGPVESLFKNPWGVAVNEQGDIYIADWGNARIRKLVIELEHHHHHH | failed
6 | MDAMEFFRQSAGQWRSQRTTHHLAFRRAENGDSSISVEALEKDDPRVIEICTMHEVDPATAIGGAYVSWQGSMEWDRDAEGHSGTTVFALVPDDASGRSGQLLRERGYAEIVPVIGRFELDENNNLNLVTDYETMSAVEQFWFMGPSLRLRASTVTRFGGLSTAAFCAEVRQTEAAADSEPLKADQLYSSLGW | failed
7 | MDAPTSQRYTAKARWLHWIMAALIVLAYTLILSRTQFGKGSEYRTLVVQSHFWVGIVVLVLAFFRVAERRRQRPPGITPPLEGVLRAAATLSHYALYAFLFTQPLLGLLTVMVEKGSLPIPLTDLQIPWPLPISDHTAEYFEDLHKLLGKIFYYVIGLHVVAALWHHIVRKDNTLKRML | failed
8 | MDARIVNALIGSVYETIRDVLGIEPKTGKPSTVSHIEIPHSLVTVIGITGGIEGSLIYSFSSETALKVVSAMMGGMEYNQLDELALSAIGELGNMTAGKLAMKLEHLGKHVDITPPTVVSGRDLKIKSFGVILKLPISVFSEEDFDLHLSVKSGG | not failed
9 | MDCCTENACSKPDDDILDIPLDDPGANAAAAKIQASFRGHMARKKIKSGERGRKGPGPGGPGGAGVARGGAGGGPSGD | failed
10 | MDDGQDAGRSGHRKAATAREGAEAMKPETPGGTAALAKGLTLLDMVADAPEPPRFAELLRASGLPKPTFARILRTLIAYGLVRQDEARGTYVLGQRFLEMSHKVWESFDLVSAATPELERLAAELGETVALCRLDGTMTQYLAERSPNGLSVRVEVGRRVPLHCTAPGKALLAFQDPAVGRALLDRLTLDLQTAKTITTLDALQADLTLTRARGYSISYEEHLPGVNSVAAPVMGRDNTPMGVLVALGPSSRLDSSNIHPAGRELIAAARRITGAAGAVAISSRPRPRSATGRPSAELSCILPWGAQLGESPVWHEGEDALYWVDILHPAVHRFDPATGRNETCETGKLVSAVIPVTGGRLLVASQDGVEWLDFASGRLTPFVSPEAGIADNRLNDAKCGPDGAIWVGSMRIDASKPTGALYRINANGASERKEGGIIVSNGLGWSPDGRTFYFVDTVPGLIHAYDCDPATGALSQRREFARIPVADGRPDGLAVDAEGGVWCAIWDGWCVRRYLPNGKLDQVIDMPVPRPSSIAFGGPDLSTLFITSARTRLPASTLADAPLSGGLFSCRPGISGARIAMFEG | failed
11 | MDDKAFTKELDQWVEQLNECKQLNENQVRTLCEKAKEILTKESNVQEVRCPVTVCGDVHGQFHDLMELFRIGGKSPDTNYLFMGDYVDRGYYSVETVTLLVALKVRYPERITILRGNHESRQITQVYGFYDECLRKYGNANVWKYFTDLFDYLPLTALVDGQIFCLHGGLSPSIDTLDHIRALDRLQEVPHEGPMCDLLWSDPDDRGGWGISPRGAGYTFGQDISETFNHANGLTLVSRAHQLVMEGYNWCHDRNVVTIFSAPNYCYRCGNQAAIMELDDTLKYSFLQFDPAPRRGEPHVTRRTPDYFL | failed
12 | MDDNTPDLFAEPAAPEGDFLTLGRYAERQYLDYAVSVVKGRALPDVSDGQKPVQRRILYAMNEMGLGDNAKPVKSARVVGDVLGKYHPHGDQSAYDALVRLAQDFSMRYPLIDGQGNFGSRDGDGAAAMRYTEARLTPIAKLLLDEIDEGTVDFMPNYDGSFDEPKLLPARLPFVLLNGASGIAVGLATEIPSHNLREVAAAAVALIRHPALPHAELMQLVPGPDFPGGGQIISSDAEISAAYETGRGSLKVRARWKIEDLARGQWQLVVTELPPNTSCQKVLEEIEELTNPKLKAGKKTLTQEQINTKKTMLDLLDAVRDESGKDAPVRLVFEPKTRTIDQTEFVNSLLAHTSLESNAALNLVMIGEDGRPAQKGLASILGEWVRFRQATVTRRCRHRLGKVNDRIHILEGRMIVFLNIDEVIRIIREADEPKAALISAFGLTERQADDILEIRLRQLARLEKIKIEKELEELRAEKAKLEELLANESAMKRLMIKEIEADAKQYGDERRTLIQQEKRATFEAKVVDEPVTVVVSQKGWVRALKGHGLDPASFSFKAGDGLYAAFQCRTPDTLIAWGSTGRVYSVAVQVLPGGRGDGVPVTSLIELESGSHLLHYFAAPAEQPLLLASSNGFGFIAKIGDMVSRVKAGKSFMTIDTGAAPLAPMPVLPDASQVACLSSGGRLLVFGMDEMKTLSGGGRGVILMALDAKETLVQALAIDAAGVVLTGTGRGGKAQEEALAGGALEPHVGKRARKGRAPDTRLKVSGLRPVLG | failed
13 | MDDRTEYDVYTDGSYVNGQYAWAYAFVKDGKVHYEDADVGKNPAAATMRNVAGEIAAALYAVKKASQLGVKIRILHDYAGIAFWATGEWKAKNEFTQAYAKLMNQYRGIYSFEKVKAHSGNEFNDYVDMKAKSALGIRDLEHHHHHH | not failed
14 | MDDSAGHSGEDNALMEKHFMAAVVVTFQSGSTIDVCLARLRAAKDVAEICVVDNGSHDETLNIVQCHALADPRVRFVANLDNPGFAAACNQGAADVSAPWLVFVNPDLMVEPEILAQLRAYAEVYVPALLGVEQVDEHGYPDPAVRRRDPDFAAMLRNPRRGTQLAIPADPTQSLQLVPALSGALMLMSRLLFERLGGWDVGYRLHAEDLDLCRRARQVGATVAVVNTLQVVHLRGVSSRSRPFFVEWHKHCGLWRYFCKFEAPQRGLPVRLGVWLAIWSHAFFQCLGVWLRRR | failed

From a protein production outcome set (Wang et al. 2014)
